Source: patent publication US20240018228A1 (University of Texas, published 2024)

Experiments:
mouse CCL21 = target: T1, mouse CCL21 (mouse, UniProt P84444 24-133); experiment: slot blot of human and mouse CCL21 protein probed with the monoclonal antibody
T1 construct: also called murine CCL21
T1 sequence (looked up): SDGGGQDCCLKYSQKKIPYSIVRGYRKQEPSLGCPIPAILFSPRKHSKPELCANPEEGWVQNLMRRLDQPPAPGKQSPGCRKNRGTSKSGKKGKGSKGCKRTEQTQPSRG

human chemokine CCL19 = target: T2, human chemokine CCL19 (human, UniProt Q99731 22-98); experiment: western blot of human CCL19 and human CCL21 probed with the monoclonal antibody
T2 sequence (looked up): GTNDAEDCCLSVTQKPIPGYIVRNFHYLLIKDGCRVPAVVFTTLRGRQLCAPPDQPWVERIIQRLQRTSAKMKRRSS

[1] = target: T3, human CCL21 (chemokine (C-C motif) ligand 21) (human, UniProt O00585 24-134); experiment: western blot of human CCL21 protein probed with hybridoma supernatant ('Supernatent BalbC (1:10)')
T3 construct: The same entry is used for native CCL21 stained in tissue; also called hCCL21; rhCCL21
T3 sequence (looked up): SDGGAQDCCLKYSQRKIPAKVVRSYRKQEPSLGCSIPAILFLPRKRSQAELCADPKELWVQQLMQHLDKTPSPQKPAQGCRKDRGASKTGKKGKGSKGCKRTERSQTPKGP

CCL21 pep 1 = target: T4, CCL21 pep 1; experiment: slot blot; each lane holds only CCL21, pep 1 or pep 2 in the amount printed, probed with the monoclonal antibody (the legend calls it a competition)
T4 construct: One of the two peptides behind r1 of the first reading
T4 peptide: SLLILVLAFGIPR

CCL21 pep 2 = target: T5, CCL21 pep 2; experiment: as above
T5 construct: One of the two peptides behind r1 of the first reading
T5 peptide: KYSQRKIPAKVVR

binding result (mouse CCL21): no binding (tested: 1.0 µg)
binding result (human chemokine CCL19): no binding (tested: 100 ng)
binding result [1]: binds
binding result (CCL21 pep 1): binds
binding result (CCL21 pep 2): no binding (tested: 1.0 µg)
B1: anti-CCL21 murine monoclonal antibody Clone #8 (C8) (antibody, V domains shown)
VH: EVQLQQSGAEIVRSGASVRLSCTASGFNIKDFYLNWVKQRPEQGLDWIGWIDPENGDTEYAPKFQGKATMTADTSSNTIYLHLSSLTSEDTAVYYCNAFDYDYWGQGTTLTVSS
VL: DIQMNQSPSSLSASLGDTVTITCHASQNINVWLSWYQQKPGNIPKLLIYKASNLHTGVPSRFSGSGSGTGFTLTISSLHPEDIATYYCHQGHSFPLTFGAGTKLELK
notes: Mouse monoclonal from immunized BALB/C mice; also called anti-CCL21 C8
